From patent US12187785B2, “Recombinant protein and fragments thereof, method for producing said recombinant protein, synthetic gene and use of sculptin or recombinant protein for preparing a medicament or pharmaceutical composition for the prophylaxis and/or treatment of thromboembolic diseases or as a direct and specific …” (priority 2017, dated 2025)

Columns and labels:
plasmin [1] = molecular target: T1, plasmin (Homo sapiens, UniProt P00747); experiment: Serine protease inhibition test, plasmin (chromogenic substrate); format: biochemical; details: recombinant protein 1, 100, 200 nM; protease 100 pM; 6 h at 37° C.
T1 construct: Serine protease (100 pM; thrombin, plasmin, trypsin or factor Xa) was incubated with recombinant protein
Description: (A) Inhibition of serine proteases through recombinant protein. Serine protease (100 pM; thrombin, plasmin, trypsin or factor Xa) was incubated with recombinant protein (1, 100 and 200 nM) in phosphate buffer 50 mM containing NaCl 150 mM and 0.1% of PEG 6000, pH 7.4 for 6 h at 37° C. Following addition of chromogenic substrate corresponding to reaction mixture, hydrolysis thereof was monitored at 405 nm. For factor Xa activity, buffer contained phosphatidylserine and phosphatidylcholine 50 μM. […] (B) Typical curves for hydrolysis of chromogenic substrate S-2238 (15 μM) by thrombin 0.1 nM in absence (trace a) or presence of recombinant protein (trace b, 15 pM; trace c, 30 pM; trace d, 60 pM and trace e, 100 pM) in phosphate buffer 50 mM containing NaCl 150 mM and 0.1% of PEG 6000, pH 7.4 at 37° C. (C) Residual activity of thrombin in presence of increasing concentration of recombinant protein. (D) Dose-response curves for thrombin inhibition by recombinant protein. Percentage of thrombin inhibition was plotted versus the concentration record of recombinant protein. Experimental condition of (C) and (D) is the same as in (B).
The first performed experiment was the test of serine proteases inhibition through recombinant protein. […] Hydrolysis of a chromogenic substrate through serine proteases in the presence and absence of recombinant protein was monitored in a spectrophotometer way. […]

plasmin [2] = molecular target: T1, plasmin; experiment: Degradation of recombinant protein by plasmin (SDS-PAGE and residual thrombin inhibition); format: in vitro ADME
Description: (§1) Recombinant protein (10 μM) was incubated with or without serine protease 1 μM (thrombin, plasmin, trypsin or factor Xa) in phosphate buffer 50 mM containing NaCl 150 mM and 0.1% of PEG 6000, pH 7.4 for 4, 6, 7 or 18 h at 37° C. Reaction mixtures (20 μl) were split by SDS-PAGE. (A) hydrolysis SDS-PAGE (15%) of recombinant protein by serine proteases following 6 h of incubation. (B) Percentage of thrombin inhibition by recombinant protein following 6 h of incubation with serine protease (see experimental procedures). (C) hydrolysis SDS-PAGE (15%) of recombinant protein by serine proteases following 18 h of incubation. (D) Percentage of thrombin inhibition by recombinant protein following 18 h of incubation with serine protease (see experimental procedures). Numbering of (B) and (D) corresponds to numbering of (A) and (C), respectively, and recombinant protein control is represented by CTRL. Recombinant protein (strip 1); thrombin (strip 2) and thrombin with recombinant protein (strip 3); plasmin (strip 4) and plasmin with recombinant protein (strip 5); trypsin (strip 6) and trypsin with recombinant protein (strip 7); factor Xa (strip 8) and factor Xa with recombinant protein (strip 9) and protein marker (strip 10; in A). (E) Identification of cleavage sites of thrombin in recombinant protein following 7 h of incubation. (F) Identification of cleavage sites of factor Xa in recombinant protein following 4 h of incubation. Cleavage sites of thrombin and factor Xa in recombinant protein sequence are shown in FIGS. S1 and S2, respectively. Experimental procedure for (C), (D), (E) and (F) was the same as for (A) and (B), except the incubation time and the type of serine protease used. FIG. 5 discloses “GKPQG” as SEQ ID NO: 18, “MPKGG” as SEQ ID NO: 19, and “SDAVH” as SEQ ID NO: 20.
(§2) Afterwards, it was determined whether serine proteases, like thrombin, plasmin, factor Xa and trypsin, hydrolyze recombinant protein. […] Upon addition of chromogenic substrate S-2238, the hydrolysis thereof by thrombin was monitored in spectrophotometer way. […]

factor Xa = molecular target: T2, factor Xa (Homo sapiens, UniProt P00742); experiment: Degradation of recombinant protein by factor Xa (SDS-PAGE and residual thrombin inhibition); format: in vitro ADME; details: for thrombin inhibition after incubation: diluted to 100 pM
T2 construct: Serine protease (100 pM; thrombin, plasmin, trypsin or factor Xa) was incubated with recombinant protein; For factor Xa activity, buffer contained phosphatidylserine and phosphatidylcholine 50 μM
Description: as §1
Afterwards, it was determined whether serine proteases, like thrombin, plasmin, factor Xa and trypsin, hydrolyze recombinant protein. For this purpose, recombinant protein (10 μM) was incubated with or without serine protease 1 μM (thrombin, plasmin, trypsin or factor Xa) in phosphate buffer 50 mM containing NaCl 150 mM and 0.1% of PEG, pH 7.4 for 6 h or 18 h at 37° C. SDS-PAGE of reaction mixture following 6 h of incubation presented that, compared to control strip of recombinant protein, strip intensity of 20-kDa (corresponding to non-digested recombinant protein) decreased and strips of lower molecular weight appeared in recombinant protein incubated by thrombin (FIG. 5A). […] Upon addition of chromogenic substrate S-2238, the hydrolysis thereof by thrombin was monitored in spectrophotometer way. […]

isolated human plasma = experiment: Thrombin time (TT) in isolated human plasma; format: biochemical; details: plasma of healthy human volunteers, incubation 3 min. at 37° C.
Description: Plasma was obtained from blood of healthy human volunteer and incubated with different concentrations of recombinant protein. APTT, PT and TT were determined like experimental procedure. (A) Activated partial thromboplastin time (B) prothrombin time and (C) thrombin time. Ctrl is related to plasma and Sal is related to plasma plus saline.
Finally, PT, aPTT and TT were assessed in isolated plasma of healthy human volunteers following incubation with recombinant protein for 3 min. at 37° C. […] Maximum test reading for aPTT was achieved following 12 nM, while for PT that was achieved following 6 nM of recombinant protein (FIGS. 11A and 11B).

[3] = Half-life in plasma ex vivo and in phosphate buffer containing thrombin; format: in vitro ADME; details: plasma ex vivo and phosphate buffer 50 mM with 1 μM thrombin, recombinant protein 10 μM, pH 7.4, 37° C.
thrombin = thrombin (Homo sapiens, UniProt P00734); experiment: Degradation of recombinant protein by thrombin (SDS-PAGE and residual thrombin inhibition); format: in vitro ADME; design: Brown and cyan colors represent heavy and light chain of thrombin respectively
Description: as §1, §2

T1 sequence (P00747 581-810 limits assumed, species assumed): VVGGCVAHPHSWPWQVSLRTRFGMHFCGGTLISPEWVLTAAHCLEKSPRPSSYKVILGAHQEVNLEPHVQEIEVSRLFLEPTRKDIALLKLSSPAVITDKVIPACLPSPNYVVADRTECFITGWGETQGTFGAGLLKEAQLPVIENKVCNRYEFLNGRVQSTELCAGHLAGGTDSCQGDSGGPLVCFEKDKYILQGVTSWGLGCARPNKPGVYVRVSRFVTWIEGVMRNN
T1 sequence (P00747 97-580 limits assumed, species assumed): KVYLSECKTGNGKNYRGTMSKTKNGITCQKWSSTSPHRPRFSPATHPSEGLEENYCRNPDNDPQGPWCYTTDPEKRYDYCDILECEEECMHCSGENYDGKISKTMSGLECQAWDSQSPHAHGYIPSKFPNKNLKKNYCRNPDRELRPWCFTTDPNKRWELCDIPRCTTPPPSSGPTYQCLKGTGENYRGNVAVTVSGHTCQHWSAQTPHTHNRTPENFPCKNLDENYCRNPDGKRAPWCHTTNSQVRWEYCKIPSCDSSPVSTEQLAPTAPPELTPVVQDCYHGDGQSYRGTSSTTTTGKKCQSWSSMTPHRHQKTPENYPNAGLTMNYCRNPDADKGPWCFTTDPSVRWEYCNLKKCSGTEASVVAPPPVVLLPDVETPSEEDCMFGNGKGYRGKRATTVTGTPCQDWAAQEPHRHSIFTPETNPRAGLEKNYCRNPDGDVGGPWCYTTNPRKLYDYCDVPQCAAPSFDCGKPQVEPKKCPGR
T2 sequence (P00742 235-488 limits assumed): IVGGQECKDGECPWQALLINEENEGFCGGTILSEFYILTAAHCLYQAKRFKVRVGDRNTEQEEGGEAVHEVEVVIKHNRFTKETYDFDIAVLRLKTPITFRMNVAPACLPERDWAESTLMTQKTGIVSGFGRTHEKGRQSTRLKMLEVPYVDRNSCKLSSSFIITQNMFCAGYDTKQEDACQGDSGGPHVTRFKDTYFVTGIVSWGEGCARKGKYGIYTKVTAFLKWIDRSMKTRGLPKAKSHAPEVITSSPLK
T2 sequence (P00742 41-179 limits assumed): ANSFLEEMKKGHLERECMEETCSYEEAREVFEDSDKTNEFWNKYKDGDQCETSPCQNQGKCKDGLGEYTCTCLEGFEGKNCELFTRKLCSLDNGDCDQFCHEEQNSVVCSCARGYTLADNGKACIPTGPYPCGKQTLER

B1: GKPQGHPHDALEARSDAVHTAVPKMPKGGHGGFEPIPIDYDERALEARSDAVHTAVPKMPKGGLGGFEPIPIDYDERALEARSDAVHTAVPKMPKGGHGGFEPIPIDYDERALEARSDAVHTAVPKMPKGGHGGFEPIPIDYDERALHALEHHHHHH (protein)
chain: GKPQGHPHDALEARSDAVHTAVPKMPKGGHGGFEPIPIDYDERALEARSDAVHTAVPKMPKGGLGGFEPIPIDYDERALEARSDAVHTAVPKMPKGGHGGFEPIPIDYDERALEARSDAVHTAVPKMPKGGHGGFEPIPIDYDERALHALEHHHHHH
modifications: Sculptin recombinat protein
notes: recombinant His-tagged protein modified from tick sculptin, expressed in E. coli
In the case of B1, the inhibition of plasmin (plasmin [1]) is reported as “did not inhibit”, the “SDS-PAGE strip of 20-kDa (non-digested recombinant protein)” value (plasmin [2]; 10 μM protein with 1 μM plasmin, 6 h at 37° C.) is reported as “completely disappeared” and the “SDS-PAGE strip of 20-kDa (recombinant protein monomer)” value (plasmin [2]; 10 μM protein with 1 μM plasmin, 18 h at 37° C.) is reported as “completely disappeared”. For the same molecule, the “thrombin inhibition after incubation” value (plasmin [2]; after 18 h incubation with plasmin, diluted to 100 pM) was “did not inhibit thrombin”, the “SDS-PAGE, hydrolysis of recombinant protein” value (factor Xa; 10 μM protein with 1 μM factor Xa, 6 h at 37° C.) was “converted the recombinant protein in fragments” and the “SDS-PAGE strip of 20-kDa (recombinant protein monomer)” value (factor Xa; 10 μM protein with 1 μM factor Xa, 18 h at 37° C.) was “completely disappeared”. The “thrombin inhibition after incubation” value (factor Xa; after 6 h digestion with factor Xa, thrombin 100 pM) was “retained its thrombin inhibition activity”, the “thrombin inhibition after incubation” value (factor Xa; after 18 h incubation with factor Xa) was “even inhibited the thrombin activity” and the TT (isolated human plasma) was “prolonged by recombinant protein in peak-molar range”. The Half-life [3] was 8 h, the “SDS-PAGE strip intensity of 20-kDa (non-digested recombinant protein)” value (thrombin; 10 μM protein with 1 μM thrombin, 6 h at 37° C.) was “decreased” and the “SDS-PAGE strip of 20-kDa (recombinant protein monomer)” value (thrombin; 10 μM protein with 1 μM thrombin, 18 h at 37° C.) was “completely disappeared”. The “thrombin inhibition after incubation” value (thrombin; after 18 h incubation with thrombin, diluted to 100 pM) was “did not inhibit thrombin”.
